The text below walks through data of patent US8298536B2, “Methods of treating inflammatory pain” (Pfizer Limited, priority 2008, dated 2012).

Substitutions are numbered along the chain they refer to.

Data set [1] deals with neurogenic skin flare rat model. In words: Neurogenic skin flare model (saphenous nerve stimulation, laser Doppler blood flow). Format: in vivo. Particulars: for start of significant decrease in blood flow response / development of neurogenic flare in vivo: rat. On the procedure: FIG. 7: Data showing G1 inhibits neurogenic flare in the skin starting from 90 min post-treatment. G1 was administered by intravenous administration (1 ml/kg). Data are from 6-8 or 13 rats per group. *p=0.05, **p=0.01 vs vehicle (phosphate buffered saline) treated group at each time point (AVOVA).
Using a neurogenic skin flare rat model the efficacy of G1 was tested for its ability to block CGRP effect in vivo. The saphenous nerve in the rat is electrically stimulated causing CGRP release from nerve endings and leading to vasodilation, the resulting changes in blood flow can be measured using laser Dopler methods.
Changes in blood flow parameters were expressed as the area under the curve (AUC, change in arbitrary Doppler flux units multiplied by time). CGRP receptor antagonist CGRP8-37 (400 nmol/kg, i.v.) was used as a positive control to validate the specificity of the model (data not shown). To determine the effect of G1 prior to dosing for each animal, the baseline blood flow response to stimulation was established with two saphenous nerve stimulations each 30 minutes apart. Rats were treated with G1 after the blood flow response of the second stimulation had returned to baseline levels (approximately 10 minutes post stimulation) and an additional four stimulations at 30 minute intervals were performed.

A further data set deals with T1, calcitonin (Homo sapiens, UniProt P01258).
T1 sequence (P01258 85-116 limits assumed): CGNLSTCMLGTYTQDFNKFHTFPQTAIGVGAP
As to the kind of experiment: Solution competition by Biacore: calcitonin. Particulars: pre-incubation with an excess of peptide. Format: binding. From the text:
(§1) FIG. 5: Solution competition by Biacore: CGRP, CGRP fragments or peptides related in sequence to CGRP were used to determine the specificity of G1.
(§2) We determined the specificity of antibody G1 to human or rat CGRP by using the Biacore chip to “probe” the free concentration of a premixed complex of mAb+peptide.
On the technique in general: Surface plasmon resonance follows binding to a sensor surface in real time, without labels.

In data set [2] the target is 25-37 human α-CGRP fragment (Homo sapiens, UniProt P06881). As to the kind of experiment: Epitope identification, alanine scan of C-terminal CGRP fragment (Biacore 3000). In kind it is binding. The note with it: 25° C. On the procedure: (§3) FIG. 4: Alanine scan using a C-terminal CGRP fragment (CGRP 25-37).
(§4) Interaction analysis was conducted at 25° C. on a Biacore 3000™ system equipped with streptavidin-coated (SA) sensor chips (Biacore AB, Uppsala, Sweden) using a standard Biacore running buffer (HBS-P). […] Each amino acid between position 27-37 was then mutated individually to alanine and expressed the fold loss in affinity compared to the wild-type fragment. […] Purified Fab fragments of antibody G1 were generated. Fab fragments were titrated over the chip using 1 μM as the top concentration of a two-fold dilution series. Association and dissociation phases were monitored at 100 μl/min for 1 minute and 5 minutes respectively. Surfaces were regenerated with a mixture of 35% ethanol+25 mM NaOH+0.5M NaCl.

The test system of data set [3] is 25-37 human α-CGRP fragment. Described as above. In kind it is binding. Particulars: Fab fragments, positions 27-37 mutated to alanine, 25° C. Here is the method:
as §3, §4

A further data set deals with T2, rat β-CGRP (Rattus norvegicus, UniProt P10093, R105S).
T2 construct: CGRP (calcitonin gene-related peptide) is a 37 amino acid neuropeptide
T2 sequence (P10093 89-125 R105S limits assumed): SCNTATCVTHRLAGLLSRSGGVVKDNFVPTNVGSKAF
As to the kind of experiment: Biacore binding affinity, N-biotin β-rat CGRP on chip. The note with it: 37 ° C. From the text: (§5) G1 was titrated over the chip surface Binding affinities were deduced from the quotient of the kinetic rate constants (KD=koff/kon) see Table 1.

In data set [4] the test system is OA hind limb of the rat (MMT). In words: Osteoarthritis pain model (transection of the medial meniscus, MMT), weight bearing. In kind it is in vivo. Here is the method: FIG. 1: Osteoarthritis pain model. […] Both antibodies were dissolved in a vehicle solution containing PBS+0.01% Tween 20. Celecoxib was used as positive control in the study. It was suspended in 0.5% methylcellulose and 0.025% Tween-20 and was administered by oral gavage (1 ml/kg) at 30 mg/kg, twice a day throughout the study period. Pain responses were assessed on day 2, 3, 7 and 10 following initiation of the pharmacology study (day 0) and were assessed in a fully blinded fashion. Data re the mean±SEM of 6 rats per group. *p<0.05 and p<0.01 vs baseline value (Dunnett's test in GraphPad Prism). In the figure, from left to right, bar 1=baseline, bars 2-5=null antibody, bars 6-9=1 mg/ml G2, bars 10-13=10 mg/ml G2, bars 14-17=Celecoxib 30 mg/ml.
Transection of the medial meniscus (MMT) in one hind knee of the rat results in the development of cartilage lesions and other changes in the joint similar to those that occur in OA. The resulting joint pain leads to the development of sustained changes in weight bearing (assessed using an incapacitance meter) in the rat hind limbs and mechanical (tactile) allodynia (assessed using von Frey filaments), in the hind paw, lasting several weeks. Studies were carried out accordingly to a blind protocol, where the investigator was not aware of the identity of the compound/control or the treatment of the animal.

The next data set concerns the target T3, human β-CGRP (Homo sapiens, UniProt P10092).
T3 construct: CGRP (calcitonin gene-related peptide) is a 37 amino acid neuropeptide
T3 sequence (P10092 82-118 limits assumed): T2 sequence (P10093 89-125 R105S limits assumed) with S1A, V22M, D25S
In words: Biacore binding affinity, N-biotin β-human CGRP on chip. The note with it: 37 ° C.
Excerpt: as §5

The next data set addresses T4, amylin (Homo sapiens, UniProt P10997).
T4 sequence (P10997 34-70 limits assumed): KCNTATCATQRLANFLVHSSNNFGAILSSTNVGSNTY
In words: Solution competition by Biacore: amylin. Particulars: pre-incubation with an excess of peptide. Format: binding.
Excerpt: as §1, §2

Another data set concerns the target T5, rat α-CGRP (Rattus norvegicus, UniProt P01256).
T5 construct: CGRP (calcitonin gene-related peptide) is a 37 amino acid neuropeptide
T5 sequence (P01256 83-119 limits assumed): T2 sequence (P10093 89-125 R105S limits assumed) with K35E
In words: Biacore binding affinity, N-biotinylated rat α-CGRP on chip.
Excerpt: as §5

In another data set the test system is rat. In words: Gastro-intestinal adverse effects in-vivo study.
Data set [5] has as its target T6, human α-CGRP (Homo sapiens, UniProt P06881).
T6 sequence (P06881 83-119 limits assumed): T2 sequence (P10093 89-125 R105S limits assumed) with S1A, N3D, D25N
As to the kind of experiment: Biacore binding affinity, N-biotinylated human α-CGRP on chip. On the set-up: as full-length N-biotinylated human α-CGRP.
Excerpt: as §5

A further data set concerns rats. In words: Long term observation for adverse CNS events (dependence indicators). In kind it is in vivo, rat. Particulars: in comparison to control animals.
The next data set deals with human or rat CGRP. In words: Solution competition by Biacore: human or rat CGRP. In kind it is binding. Particulars: premixed mAb+peptide.
Excerpt: as §1, §2

Data set [6] has as its target T6, human α-CGRP. As to the kind of experiment: Binding assay: blocking human α-CGRP from binding to the CGRP1-receptor in SK-N-MC cells. On the set-up: CGRP (calcitonin gene-related peptide) is a 37 amino acid neuropeptide; host or cells: SK-N-MC cells (endogenous receptor). The note with it: FIG. 2.
The next data set in a line: CNS penetration. The note with it: in vivo.
The target in the next data set is T7, adrenomedullin (Homo sapiens, UniProt P35318).
T7 sequence (P35318 95-146 limits assumed): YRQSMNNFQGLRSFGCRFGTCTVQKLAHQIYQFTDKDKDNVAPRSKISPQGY
As to the kind of experiment: Solution competition by Biacore: adrenomedullin. The note with it: pre-incubation with an excess of peptide. In kind it is binding.
Excerpt: as §1, §2

Data set [7] is described as follows: Plasma exposure of antibody in the OA pain study. The note with it: rat. In kind it is in vivo. Here is the method:
This effect lasted 10 days post administration when the plasma exposure of antibody G2 achieved an average value of 65.1±3 ug/ml (6.3±0.3 ug/ml, for the lower dose at 10 days post IV).

With “G1: humanized IgG2Δa monoclonal anti-CGRP antagonist antibody, vectors ATCC PTA-6867 and PTA-6866; variable regions SEQ ID Nos. 1 and 2 [Antibody G1]”, the “effect in further neurogenic flare and vasodilatation model tests” value in [1] (7 days post IV dosing) was “marked effect”. In data set [1] (FIG. 7, intravenous administration), the “start of inhibition of neurogenic flare in the skin” value turned out to be 90 min post-treatment. Further, the “start of significant decrease in blood flow response” value in [1] (1 mg/kg IV) stood at 120 minutes post dose; in data set [1] (10 mg/kg IV) it was 90 minutes post dose. For the same molecule, the “development of neurogenic flare in vivo” value in [1] is “prevent the development of neurogenic flare in vivo”. Besides, the “predicted ED50” value in data set [1] (saphenous nerve stimulation model) is 6 mg/L. Also, the “complex formation with calcitonin” value with calcitonin is “did not form a complex”. The “affinity of N-biotinylated 25-37 human α-CGRP fragment vs full-length N-biotinylated human α-CGRP” value in [2] is on record as “bound with the same affinity”. Moreover, the “alanine scan result, binding region (epitope)” value in [3] was “binds to the C-terminal region of human α-CGRP, particularly residues 25 to 37”. Moreover, the koff (usually the first-order rate constant of dissociation) with rat β-CGRP worked out at 7.85e-05 s⁻¹; with human β-CGRP, 6.98e-05 s⁻¹; in the data set with rat α-CGRP (25 ° C.) it was 6.18e-05 s⁻¹; with rat α-CGRP (37 ° C.), 0.000399 s⁻¹; in the data set with human α-CGRP [5] (25 ° C.) it was 7.8e-06 s⁻¹; in the data set with human α-CGRP [5] (37 ° C.), 3.63e-05 s⁻¹. In addition, the on-rate constant (kon) (as a rule, a measure of how fast the partners come together) was determined as 516000 M⁻¹ s⁻¹ with rat β-CGRP; 451000 M⁻¹ s⁻¹ with human β-CGRP; 50800 M⁻¹ s⁻¹ in the data set with rat α-CGRP (25 ° C.); 155000 M⁻¹ s⁻¹ in the data set with rat α-CGRP (37 ° C.); 186000 M⁻¹ s⁻¹ in the data set with human α-CGRP [5] (25 ° C.); 587000 M⁻¹ s⁻¹ with human α-CGRP [5] (37 ° C.). The “shift in weight bearing on the OA limb” value in data set [4] (repeat experiments, buffer as negative control) is “reversed the shift in weight bearing on the OA limb to normal value”. Further, the “complex formation with amylin” value with amylin was “did not form a complex”. In the data set with rat (1 week comparative study), the “adverse gastro intestinal effects on behaviour, food intake, stool production or histopathology” value was “no adverse gastro intestinal effects were observed”. Moreover, the “adverse CNS events such as sedation or stimulation/euphoric behaviour” value with rats is recorded as “did not reveal adverse CNS events”. Further, the “Biacore response after pre-incubation with human or rat CGRP” value in the data set on human or rat CGRP is reported as “fully blocked”. Also, the “inhibition of binding of α-CGRP to the CGRP1 receptor” value in the data set with human α-CGRP [6] is listed as “inhibits the binding of α-CGRP to the CGRP1 receptor”. For the same molecule, the “CNS penetration / crossing of blood brain barrier” value in “CNS penetration” is “Neither antibody G1 nor antibody G2 demonstrate CNS penetration”. The “complex formation with adrenomedullin” value with adrenomedullin is reported as “did not form a complex”.

B1: G2: anti-rat CGRP mouse monoclonal antibody (Wong H C et al. 1993); variable regions SEQ ID Nos. 19 and 20; RN4901 = murine tool in Table 1 legend (antibody, V domains shown)
VH: EVQLQQSGPELVKPGASVKMSCKASGYTFTSSVMHWVKQKPGQGLEWIGYINPYNDGTKYNEKFKGKATLTSDKSSSTAYMELSSLTSEDSAVYYCAKGGNDGYWGQGTTLTVSS
VL: EIVLTQSPTTMAASPGEKITITCSASSSISSIYLHWYQQKPGFSPKVLIYRASNLASGVPARFSGSGSGTSYSLTIGTMEAEDVATYYCQQGSTIPFTFGSGTKLEIK
modifications: Synthetic polypeptide, Antibody G2 heavy chain variable region; Synthetic polypeptide, Antibody G2 light chain variable region
B1: the “development of neurogenic flare in vivo” value in data set [1] is on record as “prevent the development of neurogenic flare in vivo”. Moreover, the “duration of effect on weight bearing” value in data set [4] (10 mg/kg, IV) stood at 10 days post administration. The “weight bearing deficit of the OA hind limb” value was “reversed weight bearing deficit of the OA hind limb” in [4] (10 mg/kg, IV) and “No effect” in data set [4] (lower dose (1 mg/kg, IV)). In the data set with rat (1 month study), the “adverse gastro intestinal effects on behaviour, food intake, stool production or histopathology” value is on record as “no adverse gastro intestinal effects were observed”. In addition, the “adverse CNS events such as sedation or stimulation/euphoric behaviour” value in the data set on rats was “did not reveal adverse CNS events”. In the data set “CNS penetration”, the “CNS penetration / crossing of blood brain barrier” value was “Neither antibody G1 nor antibody G2 demonstrate CNS penetration”. Also, the “plasma exposure, average value” in [7] (10 mg/kg IV, 10 days post administration) is 65.1 ± 3 µg/mL; in data set [7] (lower dose, 10 days post IV), 6.3 ± 0.3 µg/mL.
